The binders below were run against T1, anti-CD28 Fab (SEQ ID NOs: 202, 203) (assay: phage binding ELISA; biotinylated Fab on neutravidin plate;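 further: clonal phage supernatants added to Fab wells pretreated with CD28 antigen or with blocking buffer only, bound phage read out via HRP-linked anti-M13 antibody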).
T1 construct: biotinylated and captured on neutravidin coated plates in the phage ELISA
T1 sequence (VH, as listed by the source, chain 1 of 2): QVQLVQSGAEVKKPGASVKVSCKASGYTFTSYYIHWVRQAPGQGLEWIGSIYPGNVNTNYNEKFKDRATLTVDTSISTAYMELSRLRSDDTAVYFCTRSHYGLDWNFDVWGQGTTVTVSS
T1 sequence (VL, as listed by the source, chain 2 of 2): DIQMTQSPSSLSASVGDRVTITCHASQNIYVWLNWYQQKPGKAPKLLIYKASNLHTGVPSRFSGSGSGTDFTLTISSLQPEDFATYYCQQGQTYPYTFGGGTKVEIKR
Protocol: Clonal phage were harvested as crude supernatants and screened via standard ELISAs. […] Prior to the addition of clonal phage, wells were incubated with blocking buffer and CD28 antigen or blocking buffer alone. Without washing or aspirating, clonal phage supernatants were then added to the wells and incubated for a short time. Wells were then washed followed by detection of bound phage using a horse radish conjugated anti-M13 antibody.

| Binder | Anti-CD28 Fab (SEQ ID NOs: 202, 203) signal |
| --- | --- |
| YCEGHLQTYMAKCL [Phage-414] | 1.73 |
| YCDGHLPEYFLKCL [Phage-436] | 1.71 |
| YCDGHLPEYIFKCL [Phage-416] | 1.73 |
| YCDGHAAEFMMKCL [Phage-423] | 1.72 |
| YCDGHSLAYIAKCL [Phage-437] | 1.7 |
| YCDGHSGVYMWKCL [Phage-420] | 1.73 |
| YCDGHLQIYLWKCL [Phage-426] | 1.72 |
| YCDGHSWEYMEKCL [Phage-441] | 1.7 |
| YCDGHTQAYIQKCL [Phage-421] | 1.73 |
| YCDGHLQIYMHKCL [Phage-434] | 1.71 |
| YCDGHAAEYMDKCL [Phage-428] | 1.72 |
| YCEGHAIEYLAKCL [Phage-409] | 1.74 |
| YCEGHSEMYMKKCL [Phage-425] | 1.72 |
| YCDGHAEKYMQKCL [Phage-408] | 1.74 |
| YCDGHLEEYMVKCM [Phage-413] | 1.73 |
| YCQGHLPVYMEKCL [Phage-427] | 1.72 |
| YCDGHLVEYRGKCL [Phage-432] | 1.71 |
| YCAGHSQEHIQKCL [Phage-415] | 1.73 |
| YCAGHTQEYMYKCL [Phage-438] | 1.7 |
| YCDGHSREYMVKCL [Phage-431] | 1.71 |
| YCEGHLPQYFMKCL [Phage-440] | 1.7 |
| YCDGHAIQYIGKCL [Phage-422] | 1.72 |
| YCDGHAEEYLWKCL [Phage-418] | 1.73 |
| YCEGHSVQYMQKCL [Phage-429] | 1.71 |
